Test results: publication doi:10.1101/2024.07.02.601760, “Multi-dimensional demarcation of phylogenetic groups of plant 14-3-3 isoforms using biochemical signatures” (bioRxiv, 2024)

Biological target: the molecule itself
Experiment: SEC-MALS; Superdex 200 Increase 10/300, 0.8 ml/min; 65 µl of ~3 mg/ml or 100 μM per monomer loaded; 20 mM Tris-HCl pH 7.5, 150 mM NaCl, 5 mM βME, 3 mM NaN3; samples before preparative SEC; self-association, monomers to dimer (small tetramer peak for six isoforms)

B1: Arabidopsis thaliana 14-3-3 omicron (natural protein, UniProt Q9S9Z8 1-252, looked up)
chain: MENERAKQVYLAKLNEQAERYDEMVEAMKKVAALDVELTIEERNLLSVGYKNVIGARRASWRILSSIEQKEESKGNEQNAKRIKDYRTKVEEELSKICYDILAVIDKHLVPFATSGESTVFYYKMKGDYFRYLAEFKSGADREEAADLSLKAYEAATSSASTELSTTHPIRLGLALNFSVFYYEILNSPERACHLAKRAFDEAIAELDSLNEDSYKDSTLIMQLLRDNLTLWTSDLEEGGEQSKGHNQQDEN
notes: 14-3-3 omicron, Arabidopsis thaliana, epsilon group; construct provided by Prof; Robert J. Ferl; source: E. coli C41(DE3), purified (IMAC, thrombin cleavage of the His6-tag, subtractive IMAC, preparative SEC; aliquots before preparative SEC for SEC-MALS)
stoichiometry N: 2
